The results in this text go back to paper PMC11838001.

The target of the experiment is E-cadherin (human (endogenous in NHEK)). The experiment can be described thus: FRET or BRET; FLIM-FRET in fixed, permeabilized NHEK cells, untreated or treated with 6 μM CHIR99021 for 48 hours; β-catenin labelled by antibodies as donor (Alexa Fluor 488), E-cadherin as acceptor (Alexa Fluor 555); FRET efficiency from regions at cell-cell junctions, dual exponential fit.
E-cadherin (human (endogenous in NHEK)), sequence (P12830 23-882): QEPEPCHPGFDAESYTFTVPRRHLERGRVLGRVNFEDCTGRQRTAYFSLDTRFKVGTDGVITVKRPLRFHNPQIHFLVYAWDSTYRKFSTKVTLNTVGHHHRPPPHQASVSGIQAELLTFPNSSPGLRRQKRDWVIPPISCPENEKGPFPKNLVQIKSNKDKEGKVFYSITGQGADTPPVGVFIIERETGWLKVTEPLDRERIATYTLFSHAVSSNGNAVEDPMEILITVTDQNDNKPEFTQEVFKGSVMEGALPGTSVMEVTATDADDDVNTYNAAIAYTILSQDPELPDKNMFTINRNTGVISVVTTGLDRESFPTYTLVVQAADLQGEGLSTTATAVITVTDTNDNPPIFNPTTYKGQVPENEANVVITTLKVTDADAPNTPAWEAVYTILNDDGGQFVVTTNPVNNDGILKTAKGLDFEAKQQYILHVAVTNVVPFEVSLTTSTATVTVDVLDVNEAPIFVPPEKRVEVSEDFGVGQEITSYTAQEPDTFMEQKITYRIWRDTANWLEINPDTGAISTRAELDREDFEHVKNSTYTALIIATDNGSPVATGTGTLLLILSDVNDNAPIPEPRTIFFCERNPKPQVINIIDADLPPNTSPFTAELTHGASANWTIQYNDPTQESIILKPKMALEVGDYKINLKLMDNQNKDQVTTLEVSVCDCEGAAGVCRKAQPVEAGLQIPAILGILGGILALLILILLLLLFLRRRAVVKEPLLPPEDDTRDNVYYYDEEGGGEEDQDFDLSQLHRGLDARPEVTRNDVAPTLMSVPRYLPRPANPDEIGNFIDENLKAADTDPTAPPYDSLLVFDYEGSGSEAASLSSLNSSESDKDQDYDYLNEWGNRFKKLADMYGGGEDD

β-catenin, sequence (P35222 whole entry): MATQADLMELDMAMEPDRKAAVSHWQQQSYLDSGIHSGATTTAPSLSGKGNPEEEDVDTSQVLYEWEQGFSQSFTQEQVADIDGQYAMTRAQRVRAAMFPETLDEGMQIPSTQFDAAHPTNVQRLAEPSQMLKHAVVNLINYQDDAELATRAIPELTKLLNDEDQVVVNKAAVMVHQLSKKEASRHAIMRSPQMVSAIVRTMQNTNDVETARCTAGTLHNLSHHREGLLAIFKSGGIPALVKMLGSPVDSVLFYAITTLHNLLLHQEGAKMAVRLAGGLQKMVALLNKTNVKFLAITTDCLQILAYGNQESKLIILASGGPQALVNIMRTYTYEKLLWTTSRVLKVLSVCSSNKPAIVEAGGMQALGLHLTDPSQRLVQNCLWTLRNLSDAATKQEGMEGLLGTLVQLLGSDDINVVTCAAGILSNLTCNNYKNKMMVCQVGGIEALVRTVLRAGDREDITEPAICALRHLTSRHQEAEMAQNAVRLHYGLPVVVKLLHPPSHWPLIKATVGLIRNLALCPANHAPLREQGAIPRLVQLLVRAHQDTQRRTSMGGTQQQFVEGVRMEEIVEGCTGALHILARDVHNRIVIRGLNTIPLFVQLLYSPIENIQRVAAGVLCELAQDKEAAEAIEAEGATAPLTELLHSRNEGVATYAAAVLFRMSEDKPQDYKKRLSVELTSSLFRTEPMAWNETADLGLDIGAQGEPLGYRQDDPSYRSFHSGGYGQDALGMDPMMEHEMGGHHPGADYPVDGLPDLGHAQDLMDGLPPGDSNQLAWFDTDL

Take “β-catenin (from UniProt P35222 1-781) (natural protein)”: the fold change of FRET efficiency, CHIR-treated against untreated cells turned out to be 3 fold.
